Test [1] addresses MN gp120 (HIV-1).
Test [2] addresses AE.A244 V1V2 Tags (HIV-1). The test is described as follows: SPR, mAb captured on anti-Fc, V1/V2 tags injected. (SPR reads the build-up and loss of mass on a sensor chip optically.)
In test [3] the target is T1, B.con env03 140CF.
T1 construct: also called B.con gp140CF
The test is described as follows: ELISA OD405nm, bar chart, antibody concentration not given. A general note: ELISA stands for enzyme-linked immunosorbent assay.

The target of test [4] is T2, AE.97CNG2XF gp140CF (HIV-1).
T2 construct: also called E.97CNGX2F gp140CF
Described as above.

Test [5] concerns the target B.CaseA V1/V2 Tags. The description is as above.
In test [6] the target is D.9009SA V1V2 Tags. Described as above.
Test [7] deals with T3, B.62357 140C.
T3 construct: also called B.62357 gp140C
The description is as above.

Test [8] deals with T4, AE.con env03 40CF.
T4 construct: also called AE.con gp140CF; AE.con.env03 gp140CF
The test is described as above.

Test [9] concerns the target T5, SIV CPZ US-1 gp140CF (SIVcpz).
T5 construct: also called US-1 SIVCPZ gp140CF
T5 chain: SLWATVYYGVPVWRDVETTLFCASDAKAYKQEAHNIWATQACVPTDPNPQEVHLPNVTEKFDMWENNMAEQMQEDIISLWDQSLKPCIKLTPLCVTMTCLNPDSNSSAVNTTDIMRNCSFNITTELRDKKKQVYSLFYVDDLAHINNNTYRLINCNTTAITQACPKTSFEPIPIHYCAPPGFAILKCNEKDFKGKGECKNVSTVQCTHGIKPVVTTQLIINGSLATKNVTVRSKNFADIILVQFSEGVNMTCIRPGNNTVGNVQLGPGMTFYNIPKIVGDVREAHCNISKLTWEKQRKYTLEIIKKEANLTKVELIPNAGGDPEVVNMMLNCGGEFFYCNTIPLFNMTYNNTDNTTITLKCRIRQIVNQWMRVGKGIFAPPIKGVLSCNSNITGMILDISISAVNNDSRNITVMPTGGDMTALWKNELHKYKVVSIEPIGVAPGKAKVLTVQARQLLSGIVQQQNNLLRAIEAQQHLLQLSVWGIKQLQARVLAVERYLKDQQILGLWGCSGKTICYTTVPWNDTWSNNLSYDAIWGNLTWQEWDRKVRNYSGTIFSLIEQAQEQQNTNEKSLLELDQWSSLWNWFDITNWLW
Described as above.

Test [10] concerns the target B.63521_V1V2 Tags. Described as above.
For test [11], the target named is T6, gp70 B.CaseA2 V1/V2 (HIV-1 V1V2 on murine leukemia virus gp70).
T6 construct: also called B.gp70CaseA2 V1/V2; gp70 B.CaseAV1V2
T6 chain: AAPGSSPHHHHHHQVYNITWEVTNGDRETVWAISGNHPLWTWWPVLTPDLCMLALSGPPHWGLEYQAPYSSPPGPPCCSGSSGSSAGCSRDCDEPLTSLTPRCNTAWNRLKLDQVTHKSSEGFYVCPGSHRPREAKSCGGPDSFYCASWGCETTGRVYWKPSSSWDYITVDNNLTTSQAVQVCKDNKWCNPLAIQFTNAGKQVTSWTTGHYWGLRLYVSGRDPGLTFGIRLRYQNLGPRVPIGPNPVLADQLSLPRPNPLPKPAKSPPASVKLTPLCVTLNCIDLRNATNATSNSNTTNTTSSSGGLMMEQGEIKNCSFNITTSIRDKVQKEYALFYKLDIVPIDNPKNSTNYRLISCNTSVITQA
Described as above.

The target of test [12] is T7, A.9004SS V1V2 Tags.
T7 V1V2 tags construct: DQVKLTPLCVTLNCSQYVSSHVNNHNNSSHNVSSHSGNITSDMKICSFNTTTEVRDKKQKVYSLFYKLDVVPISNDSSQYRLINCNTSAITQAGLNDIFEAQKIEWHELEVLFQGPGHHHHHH
The test is described as above.

The target in test [13] is C.CAP206 gp140CF.12 (HIV-1). The test is described as above.
In test [14] the target is T8, MLV gp70 carrier protein.
T8 construct: also called MuLV gp70
T8 carrier protein: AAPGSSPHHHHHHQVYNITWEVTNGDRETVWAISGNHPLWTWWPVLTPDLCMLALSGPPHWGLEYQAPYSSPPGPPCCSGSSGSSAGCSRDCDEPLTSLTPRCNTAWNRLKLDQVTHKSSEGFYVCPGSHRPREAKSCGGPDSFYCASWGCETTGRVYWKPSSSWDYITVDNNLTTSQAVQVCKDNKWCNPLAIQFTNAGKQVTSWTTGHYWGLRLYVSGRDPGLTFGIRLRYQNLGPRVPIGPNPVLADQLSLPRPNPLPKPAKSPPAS
The description is as above.

Test [15] addresses B.040 gp140C. The description is as above.
In test [16] the target is T9, G.con 140CF.
T9 construct: also called G.con gp140CF; G.con.env03 gp140CF
The test is described as above.

The target in test [17] is B.9021 gp140C (HIV-1). Described as above.
Test [18] addresses T10, Con 6 120.
T10 construct: also called Con 6 gp120
The test is described as above.

Test [19] concerns the target B.040 gp140C. In words: ELISA, OD405.
The target in test [20] is T11, AE.A244 V1/V2 tags, natively deglycosylated (HIV-1).
T11 construct: also called AE.A244V1V2 tags Degly
The test is described as follows: ELISA.

Test [21] has as its target AE.A244 V1V2 Tags (HIV-1).

Substitutions are numbered along the chain they refer to. Where two headings read alike, the source gives them in different places.

B1: CH59 (antibody, V domains shown)
VH: EVQLVESGGGLVQPGRSLRLSCAASGFTFDDGAMHWVRQAPGKGLEWVSGISWNSNIIAYADSVKGRFTISRDNAKNSLYLEMNSLRVEDTALYYCAKDSPRGELPLNYWGQGTLVTVSS
VL: SYELTQPPSVSVSPGQTARITCSGDALPKNYAYWYQQKSGQAPVLVIYEDSKRPSGIPERFSGSSSGTMATLTISGAQVEDEADYYCYSTDSSGNHRVFGGGTKLTVL
notes: also called mAb CH59
For the molecule B1, the IC50 (in general, the midpoint of a concentration-inhibition curve) in [1] is 10 to 100 nM. Binding in test [2] was characterised by a dissociation constant (Kd) of 1 nM.

B2: CH59 reverted unmutated ancestor antibody (antibody, V domains shown)
VH: B1 VH with G32Y, N56G, I57S, A59G, E82Q, V88A, L107F, N108D
VL: B1 VL with N30K
notes: also called CH59 RUA; CH59_RUA
B2: the binding result in test [3], in test [4], in test [5], in test [6], in test [7] and in test [8] was “no binding (tested: not given)” throughout. Also, the binding result in [9], in test [10], in test [11], in [12], in test [13] and in test [14] was “no binding (tested: not given)” in each case. Moreover, the binding result in [15], in test [16], in test [17] and in test [18] was “no binding (tested: not given)” in each case.

B3: PG16 (antibody, V domains shown)
VH: QEQLVESGGGVVQPGGSLRLSCLASGFTFHKYGMHWVRQAPGKGLEWVALISDDGMRKYHSDSMWGRVTISRDNSKNTLYLQFSSLKVEDTAMFFCAREAGGPIWHDDVKYYDFNDGYYNYHYMDVWGKGTTVTVSS
VL: QSALTQPASVSGSPGQTITISCNGTSSDVGGFDSVSWYQQSPGKAPKVMVFDVSHRPSGISNRFSGSKSGNTASLTISGLHIEDEGDYFCSSLTDRSHRIFGGGTKVTVL
notes: also called mAb PG16; bnAb PG16
Regarding B3, the binding result in test [19] is “no binding (tested: 10 ug/ml)”.

B4: 697D (antibody, V domains shown)
VH: QVQLVQSGAEVKKPGSSVKVSCKASGGNFNTYTISWVRQAPGQGLEWMGRIIPIFGIVNPAQKFPGRVTINVDKSTNTAYMELSSLRSEDTAVYYCATSGVGLHFGYFDYWGQGTQVTVSS
VL: QSVLTQPPSVSGAPGQRVTISCTGSSSNIGAHYDVHWYQQLPGTAPKLLIYGNSNRPSGVPDRFSGSKSGTSASLAITGLQAEDEADYYCQSYDSSLSGYVFGTGTKVTVL
notes: also called mAb 697D; V2 conformational mAb 697D
On to B4, for which, in test [20], the “fold decrease of binding against the glycosylated protein” value was 6 fold. For the same molecule, in test [21], binding was put at a Kd of 117 nM; the koff (as a rule, a measure of how fast the partners let go of each other) was determined as 0.0024 s⁻¹; the kon – broadly, the second-order rate constant of association – was 20000 M⁻¹ s⁻¹.

For the origin of these results see patent publication US9988424 (DUKE UNIVERSITY, dated 2018).
